Tests used:
[1] = molecular target: synthetic Aβ42CC (amyloid-β 1-42 peptide with A21C/A30C mutations) (human); test: SEC-MALS; synthetic Aβ42CC 0.6 mg/mL, 50 min at RT after neutralisation to pH 7.2, then frozen; TSK-GEL G4000SWxl, 20 mM sodium phosphate, 150 mM NaCl, pH 7.4, autosampler 5 °C
[2] = molecular target: synthetic Aβ42CC (amyloid-β 1-42 peptide with A21C/A30C mutations) (human); test: SEC-MALS; oligomeric preparations (synthetic Aβ42CC 8 h or 24 h at RT at pH 7.2, or aggregated at RT in PBS at 0.6 mg/mL; recombinant Aβ42CC after concentration or incubation); TSK-GEL G4000SWxl, 20 mM sodium phosphate, 150 mM NaCl, pH 7.4, autosampler 5 °C

Substance: synthetic Aβ42CC (amyloid-β 1-42 peptide with A21C/A30C mutations)
- percent of the peptide present as 104 kDa oligomers [1]: 20%
- oligomer content [2]: > 94%

Source: PMC9798723
